Results as given in article PMC314469, “Protein Interaction Networks by Proteome Peptide Scanning” (PLoS Biology, 2004).

Target: T1, Abp1 SH3 (ABP1_YEAST), P15891
T1 chain: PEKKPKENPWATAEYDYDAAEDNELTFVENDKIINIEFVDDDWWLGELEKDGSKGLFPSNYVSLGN
Assay: SPOT array

Binder | normalised SPOT signal, Boehringer light units (BLU); mean over the file's lines of this peptide
VVRIKGINKIPPKP [YGL076C 86-99] | 615
VVRTSKHWVLPPRP [YKL109W 62-75] | 2600
VVSSKGTSTYPVKP [YJR105W 266-279] | 112
VVVEFSSPNIAKP [YHR091C 181-193] | 86.6
VVVMSTSDERPFRP [YGL165C 142-155] | 146
VVYFSSIPPYMKP [YNR054C 115-127] | 93.8
VWYISYGEWGPRRP [YNL052W 72-85] | 29.6
VYYVSKAKLQPAKP [YAR007C 254-267] | 135
WSRHFFLPRSKRP [YBL012C 87-99] | 324
WDGVIPTPAIIKP [YDL140C 556-568] | 78
WIRSTLNHIIPRRP [YML061C 4-17] | 66.3
WRSKRIEQLFPVRP [YDL150W 191-204] | 201
WRYLPAPPVSIRP [YOR116C 258-270] | 1240
WSIKLWDLSKPSKP [YAR003W 94-107] | 135
WTLNKDKIAHPVRP [YBR276C 624-637] | 1090
YAEILKNRMNPEKP [YBL034C 847-860] | 100
YASALKEMTHPIKP [YLR239C 24-37] | 34.2
YASPMYDFLYPFRP [YOR002W 18-31] | 179
YDNKVEEGSKPKKP [YOR168W 668-681] | 140
YDVIEVVPEPGKP [YDR301W 1057-1069] | 37
YEATPFDPITVKP [YNL330C 3-15] | 62.3

Binder | normalised SPOT signal, Boehringer light units (BLU); mean over the file's lines of this peptide
YEHLTSVKIVPQRP [YAL054C 40-53] | 113
YFPSKTVGSHPRKP [YPL162C 135-148] | 311
YFTSSYFPDDRRP [YKL004W 102-114] | 304
YIRNAVKENFPEKP [YBR137W 45-58] | 118
YKDSFYKEMTPSKP [YOR177C 24-37] | 164
YKPWSAWSYLPPKP [YDL035C 229-242] | 208
YKVYFSTPRDVKP [YBR024W 225-237] | 114
YKWTIPQPIGRRP [YGR238C 182-194] | 3200
YKWTVPAPVGPRP [YHR158C 222-234] | 1300
YLNESFVMQQPIKP [YGR067C 417-430] | 179
YNESAPLQPFPERP [YFL041W 454-467] | 15.5
YNPYGISPNHARP [YJR059W 184-196] | 223
YNYSFQFDKFPRKP [YLR392C 110-123] | 275
YPQMLALPIARRP [YBL022C 179-191] | 8030
YQKTFKLPWDPRP [YBL086C 310-322] | 155
YRLLRLLPHASRP [YOR267C 685-697] | 64
YRVYFSTPPNVKP [YBR037C 219-231] | 138
YSRQAIPPPVPNRP [YLR144C 3-16] | 1840
YTDNDDYPELDRP [YOR292C 157-169] | 140
YTNMNSLVATPMKP [YHR015W 541-554] | 145
YTPTSSQPRPPPRP [YGR268C 67-80] | 532
